From the supplement of paper PMC9112550, “Optimization of the antimicrobial peptide Bac7 by deep mutational scanning” (BMC Biology, 2022)

Test system: Escherichia coli TOP10
Test: shrunken log2 fold change of peptide-encoding DNA abundance (4.5 h post-induction vs induction); higher = less antimicrobial activity (less host growth inhibition)
Details: time post-induction: 4.5 h; library: site-saturation at positions 5, 18, 19, 20
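Note: peptides expressed intracellularly from a pBAD plasmid library in pooled LB shake-flask culture, induced with 0.3% L-arabinose, DNA abundance read by NGS, three biological replicates, DESeq2 with apeglm shrinkage.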

| Sequence | shrunken log2 fold change |
| --- | --- |
| RRIRYRPPRLPRPRPRPVCKPRP | -1.41 |
| RRIRLRPPRLPRPRPRPASIPRP | 0.0291 |
| RRIRHRPPRLPRPRPRPKLVPRP | -0.017 |
| RRIRIRPPRLPRPRPRPCKSPRP | -0.133 |
| RRIRWRPPRLPRPRPRPNLTPRP | -0.222 |
| RRIRCRPPRLPRPRPRPREMPRP | 0.245 |
| RRIRMRPPRLPRPRPRPHTMPRP | 0.124 |
| RRIRVRPPRLPRPRPRPHLFPRP | 0.461 |
| RRIRLRPPRLPRPRPRPSFWPRP | 0.0795 |
| RRIRTRPPRLPRPRPRPICTPRP | 0.409 |
| RRIRWRPPRLPRPRPRPLAIPRP | 0.0258 |
| RRIRQRPPRLPRPRPRPELYPRP | -0.113 |
| RRIRARPPRLPRPRPRPTTEPRP | 0.443 |
| RRIRWRPPRLPRPRPRPTLCPRP | 0.127 |
| RRIRPRPPRLPRPRPRPMVRPRP | -0.0349 |
| RRIRGRPPRLPRPRPRPCFAPRP | 0.789 |
| RRIRNRPPRLPRPRPRPPWAPRP | 0.38 |
| RRIRNRPPRLPRPRPRPIYNPRP | -0.642 |
| RRIRDRPPRLPRPRPRPKWIPRP | -0.0438 |
| RRIRSRPPRLPRPRPRPCKRPRP | -0.326 |
| RRIRHRPPRLPRPRPRPNIHPRP | -0.364 |
| RRIRDRPPRLPRPRPRPIDHPRP | -0.273 |

| Sequence | shrunken log2 fold change |
| --- | --- |
| RRIRFRPPRLPRPRPRPHYMPRP | -0.737 |
| RRIRTRPPRLPRPRPRPAGRPRP | 0.352 |
| RRIRDRPPRLPRPRPRPLMLPRP | 0.116 |
| RRIRRRPPRLPRPRPRPEQMPRP | 0.19 |
| RRIRSRPPRLPRPRPRPPAGPRP | 0.704 |
| RRIRMRPPRLPRPRPRPDQRPRP | -0.105 |
| RRIRQRPPRLPRPRPRPSSYPRP | -0.416 |
| RRIRMRPPRLPRPRPRPWNPPRP | 0.12 |
| RRIRIRPPRLPRPRPRPSDTPRP | 0.00546 |
| RRIRFRPPRLPRPRPRPDKKPRP | -0.0461 |
| RRIRPRPPRLPRPRPRPMDNPRP | -0.683 |
| RRIRSRPPRLPRPRPRPVPDPRP | -0.0298 |
| RRIRKRPPRLPRPRPRPSSPPRP | -0.563 |
| RRIRHRPPRLPRPRPRPHHNPRP | -0.672 |
| RRIRARPPRLPRPRPRPAQEPRP | 0.582 |
| RRIRHRPPRLPRPRPRPACYPRP | -0.226 |
| RRIRDRPPRLPRPRPRPGWGPRP | 0.687 |
| RRIRLRPPRLPRPRPRPYHHPRP | -0.398 |
| RRIRIRPPRLPRPRPRPGCYPRP | -0.715 |
| RRIRWRPPRLPRPRPRPCNWPRP | 0.136 |
| RRIRHRPPRLPRPRPRPKLDPRP | 0.225 |
| RRIRDRPPRLPRPRPRPLNQPRP | -0.009 |

| Sequence | shrunken log2 fold change |
| --- | --- |
| RRIRKRPPRLPRPRPRPVEHPRP | 0.455 |
| RRIRHRPPRLPRPRPRPITPPRP | -0.538 |
| RRIRNRPPRLPRPRPRPDWTPRP | -0.0129 |
| RRIRERPPRLPRPRPRPMHNPRP | -0.437 |
| RRIRVRPPRLPRPRPRPQMRPRP | 0.458 |
| RRIRQRPPRLPRPRPRPEKGPRP | -0.017 |
| RRIRERPPRLPRPRPRPPYNPRP | -0.728 |
| RRIRARPPRLPRPRPRPALPPRP | 0.309 |
| RRIRERPPRLPRPRPRPFERPRP | 0.00782 |
| RRIRYRPPRLPRPRPRPTYRPRP | -0.27 |
| RRIRSRPPRLPRPRPRPTDYPRP | -0.66 |
| RRIRWRPPRLPRPRPRPNGCPRP | 0.0739 |
| RRIRFRPPRLPRPRPRPDWNPRP | -0.287 |
| RRIRKRPPRLPRPRPRPESHPRP | -0.00766 |
| RRIRQRPPRLPRPRPRPLKIPRP | -0.141 |
| RRIRLRPPRLPRPRPRPGAHPRP | 0.057 |
| RRIRYRPPRLPRPRPRPHWYPRP | -1.02 |
| RRIRPRPPRLPRPRPRPIGWPRP | 0.376 |
| RRIRLRPPRLPRPRPRPLQYPRP | -0.316 |
| RRIRERPPRLPRPRPRPLDAPRP | -0.17 |
| RRIRHRPPRLPRPRPRPSRHPRP | 1.6 |
| RRIRMRPPRLPRPRPRPDWLPRP | -0.0671 |

| Sequence | shrunken log2 fold change |
| --- | --- |
| RRIRWRPPRLPRPRPRPDQHPRP | -0.00431 |
| RRIRFRPPRLPRPRPRPELMPRP | 0.179 |
| RRIRYRPPRLPRPRPRPWMCPRP | -0.0907 |
| RRIRCRPPRLPRPRPRPANAPRP | -0.0408 |
| RRIRCRPPRLPRPRPRPRNGPRP | 0.124 |
| RRIRRRPPRLPRPRPRPFDTPRP | -0.154 |
| RRIRSRPPRLPRPRPRPKLQPRP | 0.117 |
| RRIRCRPPRLPRPRPRPIYTPRP | -0.234 |
| RRIRRRPPRLPRPRPRPFSIPRP | -0.254 |
| RRIRWRPPRLPRPRPRPAMDPRP | 0.109 |
| RRIRFRPPRLPRPRPRPKVPPRP | -0.109 |
| RRIRDRPPRLPRPRPRPTVEPRP | 0.766 |
| RRIRDRPPRLPRPRPRPWMGPRP | -0.368 |
| RRIRQRPPRLPRPRPRPANWPRP | 0.431 |
| RRIRPRPPRLPRPRPRPSHWPRP | 0.959 |
| RRIRHRPPRLPRPRPRPAAMPRP | 0.191 |
| RRIRIRPPRLPRPRPRPEPFPRP | 0.126 |
| RRIRLRPPRLPRPRPRPLEWPRP | 0.0509 |
| RRIRPRPPRLPRPRPRPGDAPRP | 0.398 |
| RRIRFRPPRLPRPRPRPFTPPRP | -0.358 |
| RRIRPRPPRLPRPRPRPNSHPRP | -0.521 |
| RRIRIRPPRLPRPRPRPMEKPRP | -0.229 |

| Sequence | shrunken log2 fold change |
| --- | --- |
| RRIRYRPPRLPRPRPRPYPYPRP | -0.0257 |
| RRIRCRPPRLPRPRPRPSMFPRP | -0.651 |
| RRIRMRPPRLPRPRPRPINHPRP | -0.173 |
| RRIRSRPPRLPRPRPRPHRFPRP | -0.301 |
| RRIRTRPPRLPRPRPRPDTAPRP | 0.0677 |
| RRIRTRPPRLPRPRPRPDCCPRP | 0.135 |
| RRIRTRPPRLPRPRPRPKTLPRP | 0.0791 |
| RRIRWRPPRLPRPRPRPLCQPRP | 0.0938 |
| RRIRFRPPRLPRPRPRPYINPRP | -0.647 |
| RRIRKRPPRLPRPRPRPFEHPRP | -0.0326 |
| RRIRPRPPRLPRPRPRPSQCPRP | -0.985 |
| RRIRSRPPRLPRPRPRPAGGPRP | 0.529 |
| RRIRRRPPRLPRPRPRPAQCPRP | 0.152 |
| RRIRRRPPRLPRPRPRPHIPPRP | -0.126 |
| RRIRGRPPRLPRPRPRPALGPRP | 1.11 |
| RRIRRRPPRLPRPRPRPRCSPRP | 0.152 |
| RRIRIRPPRLPRPRPRPEEYPRP | -0.0228 |
| RRIRCRPPRLPRPRPRPRYRPRP | -0.176 |
| RRIRSRPPRLPRPRPRPIPSPRP | -0.00523 |
| RRIRKRPPRLPRPRPRPSMIPRP | -0.0957 |
| RRIRYRPPRLPRPRPRPFVWPRP | 0.119 |
